Experimental data published in the supplement of paper PMC6757056.
± gives the standard deviation of the averaged measurements.

B1: library; a variant is named by its letters at N, in order (parent)
chain: GCUGUCACCGAGAAACUGUGAAGUAUAUCUUAAACCUGGGCACUUAAAAGAUAUAUGGAGUUAGUAGUGCAACCUGCUCGGUCUGAUGAGUCCNNNNNNGGACGAAACAGC

How the values were obtained:
cyclic di-GMP [1] = variants of: B1; assay: normalized RNA/DNA level without ligand (relative to sTRSVctl = 100) (log10 (% of sTRSVctl)); HEK293T; ligand: cyclic di-GMP (c-di-GMP-II aptamer); higher = less ribozyme self-cleavage, higher mRNA level; conditions: reporter: mCherry (pCS4076), ligand present: no
In short: (§1)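 Total RNA, extracted with EDTA 72 h after HEK293T cells were transfected with 4 µg per 6-well well of reporter-linked ribozyme switch library plasmids, was reverse-transcribed, amplified, barcoded and sequenced. Ligand, if used, was added 1 h before transfection. RNA level was derived from RNA reads divided by DNA reads and normalized to a spiked-in non-cleaving sequence or to the top sequences. This was multiplied by 100 and log10-transformed, with the top set of 25 sequences and a ≥100 DNA read minimum.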

cyclic di-GMP [2] = variants of: B1; assay: normalized RNA/DNA level with ligand (relative to sTRSVctl = 100) (log10 (% of sTRSVctl)); HEK293T; ligand: cyclic di-GMP (c-di-GMP-II aptamer); ligand concentration (+) RNA-Seq: 1 mM; higher = less ribozyme self-cleavage, higher mRNA level; conditions: reporter: mCherry (pCS4076), ligand present: yes
In short: as §1

Variant | normalized RNA/DNA level without ligand (log10) (cyclic di-GMP [1]) | normalized RNA/DNA level with ligand (log10) (cyclic di-GMP [2])
CUAUGU | 1.748 ± 0.012 | 1.84 ± 0.088
CUAUGA | 1.6 ± 0.059 | 1.76 ± 0.058
CUAUGG | 1.75 ± 0.049 | 1.87 ± 0.09
CUAUGC | 1.75 ± 0.042 | 1.86 ± 0.12
GUACAU | 1.61 ± 0.075 | 1.79 ± 0.074
GUACAC | 1.67 ± 0.03 | 1.79 ± 0.1
GUACAG | 1.65 ± 0.067 | 1.78 ± 0.12
UUAGGA | 1.57 ± 0.079 | 1.76 ± 0.089
UUAGGG | 1.65 ± 0.018 | 1.8 ± 0.12
UUAGGU | 1.7 ± 0.042 | 1.86 ± 0.1
UUAGGC | 1.7 ± 0.021 | 1.83 ± 0.14
CGUUGG | 1.737 ± 0.0074 | 1.85 ± 0.072
CGUUGU | 1.76 ± 0.018 | 1.86 ± 0.1
CGUUGA | 1.52 ± 0.043 | 1.71 ± 0.14
CGUUGC | 1.78 ± 0.027 | 1.88 ± 0.071
GUACUU | 1.7 ± 0.036 | 1.81 ± 0.15
GUACUC | 1.54 ± 0.099 | 1.75 ± 0.041
GUACUA | 1.61 ± 0.036 | 1.8 ± 0.065
GUACUG | 1.58 ± 0.033 | 1.78 ± 0.081
CUAGGG | 1.62 ± 0.022 | 1.78 ± 0.12
CUAGGC | 1.74 ± 0.03 | 1.89 ± 0.11
CUAGGA | 1.54 ± 0.055 | 1.72 ± 0.099
CUAGGU | 1.7 ± 0.026 | 1.85 ± 0.14

Variant | normalized RNA/DNA level without ligand (log10) (cyclic di-GMP [1]) | normalized RNA/DNA level with ligand (log10) (cyclic di-GMP [2])
CUACAU | 1.57 ± 0.047 | 1.72 ± 0.13
CUACAG | 1.73 ± 0.023 | 1.87 ± 0.035
UUACGC | 1.739 ± 0.011 | 1.86 ± 0.1
UUACGU | 1.66 ± 0.03 | 1.8 ± 0.079
UUACGA | 1.77 ± 0.046 | 1.87 ± 0.11
UUACGG | 1.82 ± 0.058 | 1.9 ± 0.094
GUAUUA | 1.578 ± 0.0077 | 1.75 ± 0.1
GUAUUC | 1.48 ± 0.036 | 1.7 ± 0.11
UGUUCU | 1.75 ± 0.051 | 1.88 ± 0.13
UGUUCC | 1.84 ± 0.052 | 1.94 ± 0.14
UGUUCG | 1.8 ± 0.023 | 1.89 ± 0.12
UGUUCA | 1.71 ± 0.066 | 1.81 ± 0.12
AUACGG | 1.58 ± 0.093 | 1.74 ± 0.056
AUACGU | 1.67 ± 0.043 | 1.79 ± 0.059
AUACGC | 1.658 ± 0.014 | 1.81 ± 0.14
UUAUAG | 1.71 ± 0.046 | 1.8 ± 0.11
UUAUAC | 1.73 ± 0.018 | 1.86 ± 0.053
UUAUAA | 1.6409 ± 0.0011 | 1.81 ± 0.13
UGUUUU | 1.71 ± 0.032 | 1.86 ± 0.11
UGUUUC | 1.812 ± 0.0031 | 1.92 ± 0.08
UGUUUG | 1.77 ± 0.014 | 1.91 ± 0.12
UGUUUA | 1.744 ± 0.0073 | 1.89 ± 0.072
GGUUCG | 1.7 ± 0.046 | 1.88 ± 0.075

Variant | normalized RNA/DNA level without ligand (log10) (cyclic di-GMP [1]) | normalized RNA/DNA level with ligand (log10) (cyclic di-GMP [2])
GGUUCU | 1.66 ± 0.044 | 1.77 ± 0.083
GGUUCA | 1.6 ± 0.043 | 1.73 ± 0.12
UUAUCA | 1.76 ± 0.11 | 1.91 ± 0.14
UUAUCG | 1.783 ± 0.014 | 1.86 ± 0.14
UUAUCU | 1.704 ± 0.0044 | 1.85 ± 0.083
GUAGUC | 1.37 ± 0.12 | 1.55 ± 0.054
GUAGUG | 1.744 ± 0.0031 | 1.81 ± 0.12
GUAGUU | 1.61 ± 0.043 | 1.75 ± 0.061
GUAAGU | 1.65 ± 0.033 | 1.77 ± 0.061
GUAAGC | 1.58 ± 0.028 | 1.76 ± 0.16
UUAGCG | 1.79 ± 0.032 | 1.86 ± 0.11
UUAGCU | 1.775 ± 0.0051 | 1.89 ± 0.062
UUAGCC | 1.76 ± 0.082 | 1.83 ± 0.13
UUAGCA | 1.72 ± 0.052 | 1.83 ± 0.12
UUACAC | 1.73 ± 0.034 | 1.84 ± 0.11
UUACAG | 1.707 ± 0.0067 | 1.86 ± 0.14
UUACAU | 1.677 ± 0.014 | 1.82 ± 0.1
UUACAA | 1.639 ± 0.0043 | 1.82 ± 0.07
AUAUUU | 1.67 ± 0.018 | 1.84 ± 0.11
AUAUUG | 1.6 ± 0.052 | 1.78 ± 0.15
AUAUUC | 1.707 ± 0.0056 | 1.84 ± 0.12
AUAUUA | 1.56 ± 0.05 | 1.76 ± 0.057
UUAAAG | 1.65 ± 0.023 | 1.81 ± 0.11

Variant | normalized RNA/DNA level without ligand (log10) (cyclic di-GMP [1]) | normalized RNA/DNA level with ligand (log10) (cyclic di-GMP [2])
UUAAAA | 1.645 ± 0.0029 | 1.8 ± 0.066
UUAAAC | 1.7 ± 0.057 | 1.8 ± 0.097
UUACCG | 1.8 ± 0.035 | 1.88 ± 0.11
UUACCU | 1.74 ± 0.022 | 1.86 ± 0.069
AGUUCC | 1.8 ± 0.043 | 1.9 ± 0.084
AGUUCU | 1.69 ± 0.027 | 1.87 ± 0.056
AGUUCA | 1.62 ± 0.051 | 1.8 ± 0.061
AGUUCG | 1.69 ± 0.021 | 1.79 ± 0.11
AUAGUC | 1.675 ± 0.0068 | 1.83 ± 0.088
AUAGUG | 1.56 ± 0.068 | 1.71 ± 0.083
AUAGGC | 1.55 ± 0.023 | 1.76 ± 0.18
AUAGGA | 1.35 ± 0.13 | 1.55 ± 0.15
GUAUAU | 1.6 ± 0.031 | 1.75 ± 0.11
GUAUAA | 1.501 ± 0.012 | 1.69 ± 0.088
GUAUAC | 1.661 ± 0.0097 | 1.81 ± 0.084
AUAAUC | 1.677 ± 0.0067 | 1.77 ± 0.08
AUAAUG | 1.58 ± 0.034 | 1.75 ± 0.059
CUAGAG | 1.589 ± 0.011 | 1.74 ± 0.08
CUAGAU | 1.65 ± 0.017 | 1.79 ± 0.069
CUAAAC | 1.7 ± 0.018 | 1.79 ± 0.095
CUAAAG | 1.64 ± 0.033 | 1.79 ± 0.055
AUACCC | 1.75 ± 0.043 | 1.89 ± 0.086
AUACCA | 1.663 ± 0.0032 | 1.79 ± 0.11

Variant | normalized RNA/DNA level without ligand (log10) (cyclic di-GMP [1]) | normalized RNA/DNA level with ligand (log10) (cyclic di-GMP [2])
AUACCU | 1.7 ± 0.054 | 1.85 ± 0.046
CUAAUC | 1.712 ± 0.014 | 1.81 ± 0.087
UUAGAU | 1.7 ± 0.031 | 1.83 ± 0.082
UUAGAC | 1.702 ± 0.0078 | 1.83 ± 0.1
UUAGAG | 1.63 ± 0.0024 | 1.76 ± 0.047
UUAGAA | 1.56 ± 0.043 | 1.73 ± 0.088
UUAAGG | 1.77 ± 0.047 | 1.9 ± 0.13
UUAAGU | 1.71 ± 0.02 | 1.82 ± 0.1
UUAAGC | 1.734 ± 0.0092 | 1.85 ± 0.078
GUAAUU | 1.689 ± 0.016 | 1.78 ± 0.054
GUAAUC | 1.35 ± 0.22 | 1.56 ± 0.12
GUAAUA | 1.59 ± 0.044 | 1.73 ± 0.045
AUAGCG | 1.73 ± 0.02 | 1.85 ± 0.15
AUAGCC | 1.76 ± 0.022 | 1.87 ± 0.095
AUAGCA | 1.71 ± 0.043 | 1.81 ± 0.15
AUAGCU | 1.68 ± 0.024 | 1.78 ± 0.069
CUACCU | 1.59 ± 0.032 | 1.77 ± 0.078
CUACCG | 1.82 ± 0.095 | 1.91 ± 0.098
CUACCA | 1.621 ± 0.016 | 1.79 ± 0.12
CUACCC | 1.76 ± 0.046 | 1.88 ± 0.1
AUAUGG | 1.56 ± 0.033 | 1.75 ± 0.14
AUAUGA | 1.43 ± 0.066 | 1.63 ± 0.071
AUAUGU | 1.623 ± 0.0061 | 1.8 ± 0.15
